What was measured:
[1] = target: T1, bL4_C36 (biotin-GSGS-C36-NH2, HIV-1 HXB2 Env gp41 HR2 peptide) (HIV-1 (HXB2 strain), N-terminal biotin; C-terminal amide); assay: ELISA, bL4_C36 immobilized on neutravidin-coated plates, detection with Penta-His-HRP antibody, A450nm
T1 construct: also called C-peptide
T1 peptide: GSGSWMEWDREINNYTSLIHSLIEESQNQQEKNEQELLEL

[2] = target: T1, bL4_C36 (biotin-GSGS-C36-NH2, HIV-1 …); assay: ELISA, peptide on neutravidin-coated plate, Penta-His-HRP detection
[3] = target: T1, bL4_C36 (biotin-GSGS-C36-NH2, HIV-1 …); assay: SPR, bL4_C36 immobilized on a streptavidin sensor chip, Alphabody injected at 250 to 7.8 nM, Langmuir model (phase 1)
[4] = target: T1, bL4_C36 (biotin-GSGS-C36-NH2, HIV-1 …); assay: SPR, bL4_C36 on streptavidin chip, Langmuir model
[5] = target: T1, bL4_C36 (biotin-GSGS-C36-NH2, HIV-1 …); assay: SPR, bL4_C36 on streptavidin chip; disulfide dimer, bidentate binding
[6] = target: T1, bL4_C36 (biotin-GSGS-C36-NH2, HIV-1 …); assay: SPR, two-step model, second phase
[7] = target: T1, bL4_C36 (biotin-GSGS-C36-NH2, HIV-1 …); assay: SPR, bL4_C36 immobilized on a streptavidin sensor chip, two-step kinetic binding model, phase 2 (dimensionless)
[8] = target: T1, bL4_C36 (biotin-GSGS-C36-NH2, HIV-1 …); assay: SPR, two-step model, global KD
[9] = target: T1, bL4_C36 (biotin-GSGS-C36-NH2, HIV-1 …); assay: SPR, two-step model, first fast association phase
[10] = target: T1, bL4_C36 (biotin-GSGS-C36-NH2, HIV-1 …); assay: SPR, bL4_C36 immobilized on a streptavidin sensor chip, two-step kinetic binding model, global constant of phases 1+2 (KD1*KD2)
[11] = target: T1, bL4_C36 (biotin-GSGS-C36-NH2, HIV-1 …); assay: SPR, bL4_C36 immobilized on a streptavidin sensor chip, two-step kinetic binding model, phase 1

Binder | EC50 (read off the curve) [1] [nM] | Kd [3] [nM] | Kd [4] [nM] | koff [3] [s⁻¹] | kon [3] [M⁻¹ s⁻¹] | further results
single-chain Alphabody scAB_Env03 (designed binder, expressed soluble in E. coli with an N-terminal His10 tag; not shown: N-terminal 10-histidine tag from pET16b) MGHHHHHHHHHHSSGHIEGRHMSIEEIQKPIATIQEAIAWIQKKIYMMTGGSGGGSGGGSGGGSGMSIEEIQKQIAAIQKQIAAIQKQIYAMTGGSGGGSGGGSGGGSGMSIEEIQKQIVAIMEQIVAIVKQISAMTP | ~5 | 211 | 200 |  |  | EC50 [2]: ~6 nM
single-chain Alphabody scAB_Env02 (designed binder, Soluble construct with N-terminal His10 tag (pET16b)) MGHHHHHHHHHHSSGHIEGRHMSIEEIQKPIASIQELIATIQKYIYIMTGGSGGGSGGGSGGGSGMSIEEIQKQIAAIQKQIAAIQKQIYAMTGGSGGGSGGGSGGGSGMSIEEIQKQIQAITEQIIAISKQIIAMTP | ~20 |  |  |  |  | 
single-chain Alphabody scAB_Env03_KC (designed binder, Interchain disulfide between Cys80 of chain 1 and Cys80 of chain 2 (homodimer; paragraph 268, and FIG.11 prints 'scAB_Env03_KC (dimer)')., also called Env03 Cys-mutant) MGHHHHHHHHHHSSGHIEGRHMSIEEIQKPIATIQEAIAWIQKKIYMMTGGSGGGSGGGSGGGSGMSIEEIQKQIAAIQCQIAAIQKQIYAMTGGSGGGSGGGSGGGSGMSIEEIQKQIVAIMEQIVAIVKQISAMTP |  |  |  |  |  | Kd [5]: 0.62 nM; koff [5]: 2.4e-05 s⁻¹; kon [5]: 38000 M⁻¹ s⁻¹
single-chain Alphabody scAB_Env03_PA (designed binder, Made by the same protocol as the parent (N-terminal His10 tag); The substitution has no printed number) MGHHHHHHHHHHSSGHIEGRHMSIEEIQKAIATIQEAIAWIQKKIYMMTGGSGGGSGGGSGGGSGMSIEEIQKQIAAIQKQIAAIQKQIYAMTGGSGGGSGGGSGGGSGMSIEEIQKQIVAIMEQIVAIVKQISAMTP |  |  |  |  |  | koff [6]: ~0.0001 s⁻¹; KD (phase 2) [7]: 0.024 (-); Kd [8]: ~10 nM; kon [9]: ~100000 M⁻¹ s⁻¹; Kd [10]: 13 nM; KD (phase 1) [11]: 558 nM
single-chain Alphabody scAB_Env05 (designed binder, Soluble construct with N-terminal His10 tag (pET16b)) MGHHHHHHHHHHSSGHIEGRHMSIEEIQKHIASIQEYIAWIQKEIYRMTGGSGGGSGGGSGGGSGMSIEEIQKQIAAIQKQIAAIQKQIYAMTGGSGGGSGGGSGGGSGMSIEEIQKQILAIMEQIYAIVKQINAMTP | ~40 | 3930 | 4000 | 0.32 | 81000 | 
single-chain Alphabody scAB_Env04 (designed binder, Soluble construct with N-terminal His10 tag (pET16b)) MGHHHHHHHHHHSSGHIEGRHMSIEEIQKPIATIQETIAWIQKTIYGMTGGSGGGSGMSIEEIQKQIAAIQKQIAAIQKQIYAMTGGSGGGSGGGSGGGSGMSIEEIQKQIRAIFEQIVAICKQIIAMTP | ~20 | 167 | 200 | 0.1 | 570000 | 
